Test [1] deals with V-Csn (Viral Chitosanase), soil viral GH75 chitosanase AMG product (soil virus (predicted Proteobacteria phage; forest soil metagenome)). The test can be described thus: SEC; size exclusion chromatography of purified V-Csn in solution; conditions of this observation are not given (gel filtration in the purification used a Superdex HiLoad 26/60 column). (In gel filtration, larger molecules generally elute earlier.)

For test [2], the target named is T1, V-Csn (uncultured phage, UniProt Z9RE59BL32).
T1 construct: model residues 1-224 plus linker GHS; dimer in solution
Nature of the test: X-ray crystal structure of co-crystal, […] A. The class given is binding. The settings on record: co-crystallised with about 5 mM chitohexaose, 0.2 M ammonium sulfate, 0.1 M sodium acetate pH 4.6, 30% MMePEG2000; active-site cleft; three of six GlcN residues modelled.

By stoichiometry N is commonly meant the number of molecules, sites or subunits per partner or assembly. Take “V-Csn (Viral Chitosanase), soil viral GH75 chitosanase AMG product (enzyme)”: the stoichiometry N in test [1] is 2.
Take `N[C@H]1[C@H](O[C@H]2[C@H](O)[C@@H](N)[C@H](O[C@H]3[C@H](O)[C@@H](N)[C@H](O[C@H]4[C@H](O)[C@@H](N)[C@H](O[C@H]5[C@H](O)[C@@H](N)[C@H](O[C@H]6[C@H](O)[C@@H](N)C(O)O[C@@H]6CO)O[C@@H]5CO)O[C@@H]4CO)O[C@@H]3CO)O[C@@H]2CO)O[C@H](CO)[C@@H](O)[C@@H]1O` (some centres unmarked) [chitohexaose]: in test [2], the “X-ray crystal structure of co-crystal, 1.30 A” value is reported as “gave a complex with the E157Q mutant only”.
